Literature values as cited in publication PMC3826259.

Tests used:
[1] = target: HIV-1 protease mature PR (Human immunodeficiency virus 1) (UniProt O93215)
[2] = target: p6*-PR precursor p6*-PR (Human immunodeficiency virus 1) (UniProt O93215)

Row | Substance | Kd [1] [nM] | Kd [2] [nM]
1 | HIV-1 protease mature PR (from UniProt O93215) | < 5 | –
2 | p6*-PR precursor p6*-PR (from UniProt O93215) | – | 700
